The values below come from patent US20230332166A1, “FORMATE-INDUCIBLE PROMOTERS AND METHODS OF USE THEREOF” (Imperial College Innovations Ltd, priority 2020, published 2023).

First the molecules themselves.
B1: Yali0B22506: putative Y. lipolytica FDH gene; promoter region SEQ ID NO: 4 (1 Kb) and 20 (1.5 Kb) (nucleic acid, listed as Yarrowia lipolytica)
DNA: ATGAAGATTCTCCTTATCCTTTACGACGCCGGCTCCCACGCTGCTGACGAACCCAAGCTGCTAGGTTGCACCGAGAACGAGCTCGGCATCCGATCCTGGCTCGAGTCCCAGGGCCATACCCTGGTCACCACCTCTTCCAAGGAGGGTGCTGACTCTGTTCTCGACAAGGAGATTGTTGATGCCGATGTTGTCATCACCACTCCCTTCCACCCCGGCTACATCACCCGAGAGCGAATTGCCAAGGCCAAGAACCTCAAGATCTGTGTCACTGCCGGTGTTGGCTCTGACCACGTTGATCTTGCTGCCGCCAACGAGAGAAACATTGCCGTGCTCGAGGTCACTGGTTCCAACGTGACTTCTGTTGCTGAGCACGTTGTCATGACCATGCTTGTTCTTGTCCGAAACTTCGTGCCTGCCAACGAGCAGGTTCGAGGCGGCGGCTGGGACGTTGCCGGTGTTGCCAAGGATTCCTACGATATTGAGGGTAAGGTCATTGGTACCGTCGGAGTCGGCCGAATCGGCAAGCGAGTGCTCCAGCGACTCAAGCCCTTCGACCCCAAGGAGCTGCTCTACTACGACTATCAGCCTCTGTCTGCTGCCGACGAGAAGGAGATTGGCGCCCGACGAGTTGAGAAGCTCGAGGACATGCTTGCCCAGTGTGATGTTGTCACCATCAACTGCCCCCTGCACGAATCCACCAAGGGTCTCTTTAACAAGGAGCTGCTGTCCCACATGAAGAAGGGCGCCTGGCTCGTCAACACCGCTCGAGGAGCCATCTGTGTAAAGGAGGACGTTGCCGCCGCTCTCAAGTCTGGTCAGCTCCGAGGCTACGGCGGAGATGTCTGGTTCCCCCAGCCTGCCCCTGCTGACCACCCCTGGAGAAAGATGGTCAACAAGTACGGTGCCGGTAACGCCATGACCCCCCACATGTCTGGAACCTCTCTGGACGCCCAGGCCCGATACGCTGCTGGTGTCAAGCAGATTCTCGACGAGTTCTTCTCCGGCCGAGAACAGTACCGACCCCAGGACATTATCTGCTACGGTGGTAACTACGGCACCAAGGCCTACGGAGACGACAAGAAGGTCGTCGACAAGAAGTAATCCGTCCAACGTTCTTCTCAGCGCACAGGTACCTATACTACTGGTAGTATCAGGTTAAACCTCTTTTAGTTTAATGATAAGATAAGATAACATACCGT
modifications: YALI0B22506g
B2: Yali0E15840: putative Y. lipolytica FDH gene; promoter region SEQ ID NO: 10 (1 Kb) and 26 (1.5 Kb) (nucleic acid, listed as Yarrowia lipolytica)
DNA: ATGAAGGTCCTTCTTGTTCTTTACGATGCTGGCTCTCACGCTGCTGACGAGCCCAAGCTCCTTGGATGCACCGAAAACGAGCTCGGTATCCGAGACTGGCTCGAGTCCCAGGGCCACACGCTTGTCACCACCTCTTCCAAGGATGGCGCCGACTCTGTGCTCGACAAGGAAATTGTTGACGCCGACGTTGTCATCACCACCCCCTTCCACCCCGGCTACATCAACAAGGAGCGAATCGACAAGGCCAAGAAGCTCAAGATCTGCATCACCGCCGGAGTCGGCTCGGACCACGTTGATCTCGATGCTGCCAACGCTCGAGATATCGCTGTTCTGGAGGTCACTGGTTCTAATGTCCAATCCGTCGCTGAGCATGTTGTCATGACTATGCTCGTTCTGGTCCGAAACTTTGTCCCCGCCCACGAGCAGATCATTTCCGGCGGGTGGGACGTTGCGGCGGTCGCCAAGGACTCCTACGATCTAGAGGGTAAGGTCATCGGTACCGTGGGAGGCGGCCGAATCGGTCAGCGTGTCCTCAAGCGATGCAAGCCTTTCGACCCCATGGAAATGCTCTACTACGATTACCAGCCCATGCCTGCCGACGTCGAAGAGGAGATTGGCTGCCGACGAGTCGAGTCGCTCGAGCAAATGCTTTCTCTGTGTGATGTTGTCACTATCAACTGCCCTCTGCACGCCTCCACCAAGGGTCTCTTCAACAAGGAGCTCATCTCCCACATGAAGGATGGAGCCTGGCTCGTCAACACTGCTCGAGGAGCCATCTGCGTCACCGAGGACATTGTCGAGGCCCTAGAGTCCGGCAAAATCCGAGGATACGGAGGAGACGTCTGGTTCCCCCAGCCTGCCCCCAAGGACCACCCCTGGAGAACCATGCGAAACAATTACGGTGGTGGAAACGCCATGACTCCCCACATCTCCGGAACCTCCATTGATGCCCAGGGCCGATACGCTGAGGGTACCAAGAAGATCCTCGAGGTCTTTTTCTCGGGCAAGCAGGATTATCGACCCCAGGATATCATCTGTATCAACGGCCATTATGGTACCAAGGCCTACGGTGACGACAAAGAGCATAAGGAGCATCAGCTCAAGTAA
modifications: YALI0E15840g
B3: Yali0F13937: putative Y. lipolytica FDH gene; promoter region SEQ ID NO: 6 (1 Kb) and 22 (1.5 Kb) (nucleic acid, listed as Yarrowia lipolytica)
DNA: ATGAAGGTCCTTCTTATTCTCTATGATGCCGGCTCTCACGCTAAGGATGAGCCCAAGCTCCTTGGATGCACCGAGAACGAGCTCGGTATCCGAGACTGGCTCGAGTCTCAGGGCCATACTCTCGTTACCACCTCTTCCAAGGATGGCGCCGACTCTGTGCTTGACAAGGAGATTGTTGACGCCGATGTAGTCATCACTACCCCCTTCCACCCTGGCTACATCAACAAGGAGCGAATCGACAAGGCCAAGAAGCTCAAGATCTGCATCACTGCCGGTGTGGGCTCGGACCACGTTGATCTCGATGCTGCCAACGCTCGAGATATCGCTGTTCTGGAAGTCACTGGTTCTAATGTCCAGTCCGTCGCTGAGCATGTTGTCATGACTATGCTCGTTCTGGTCCGAAACTTTGTCCCCGCCCACGAGCAAATCATCTCTGGCGGCTGGGATGTTGCTGCTGTCGCCAAGGACTCCTACGATCTCGAGGGTAAGGTCATCGGTACCGTTGGTGGCGGCCGAATCGGCCAGCGTGTCCTCAAGCGATGCAAGCCCTTCGACCCCATGGAAATGCTCTACTACGACTACCAGCCCATGCCTGCCGACGTCGAAAAGGAGATTGGTTGCCGACGAGTTGAGTCTCTGGAGGAGATGCTCTCTCTGTGTGATGTCGTGACCATCAATTGCCCTCTGCACGCCTCCACCAAGGGCCTCTTCAACAAGGAGCTCATCTCGCACATGAAGAATGGTGCTTGGCTCGTCAACACTGCTCGAGGAGCCATCTGCGTTACCGAGGACATTGTCGAGGCACTCGAGTCCGGCAAGATGCGAGGATACGGTGGTGATGTCTGGTTCCCCCAGCCTGCCCCCAAGGACCATCCCTGGAGAACCATGCGAAACAAGTACGGTGGTGGAAACGCCATGACTCCTCATATCTCTGGCACTTCCATCGATGCCCAGGGCCGATACGCCGAGGGAACAAAGAAGATCCTCGAGGTCTTCTTCTCTGGCAAGCAGGATTACCGACCCCAGGACATTATCTGCATCAACGGTCACTACGGTACCAAGGCTTACGGTGACGACAAGGAGCACAAGGAGCACCAGCTTAAGTAAACATTTTTATAGTAACATCTCATTTTGT
modifications: YALI0F13937g
B4: Yali0B19976: putative Y. lipolytica FDH gene; promoter region SEQ ID NO: 9 (1 Kb) and 25 (1.5 Kb) (nucleic acid, listed as Yarrowia lipolytica)
DNA: ATGAAGGTCCTTCTTGTTCTCTACGACGCCGGCTCCCACGCCAAGGATGAGCCCAAGCTACTTGGATGCACTGAAAACGAGCTCGGTATCCGAGACTGGCTCGAGTCCCAGGGCCATACCCTGGTAACTACCTCTTCTAAGGATGGCGCCGACTCCGTTCTCGACAAGGAGATTGTTGATGCCGATGTTGTCATCACTACCCCCTTCCATCCCGGTTACATCAACAAGGAGAGAATTGACAAGGCCAAGAAGCTCAAGATCTGTATCACTGCCGGTGTTGGTTCTGACCATGTCGATCTAGATGCCGCCAACGCCCGAGACATTGCTGTCCTTGAAGTCACTGGCTCCAACGTTCAGTCGGTCGCTGAGCATGTTGTCATGACCATGCTTGTTCTGGTCAGAAACTTCGTCCCTGCTCATGAGCAGATCATTTCTGGTGGCTGGGACGTTGCCGCTGTCGCCAAGGACTCTTACGACCTAGAGGGTAAGGTCATTGGTACAGTTGGAGGTGGGCGAATCGGTCAGCGAGTCCTCAAGCGATGCAAGCCCTTCGACCCCATGGAGATGCTCTACTACGACTACCAGCCCATGCCCGCTGATGTCGAGAAGGAGATTGGCTGTCGACGAGTGGAGTCTCTCGAGGAGATGCTCTCTCTCTGTGACGTTGTCACCATCAACTGTCCTCTGCACGCCTCCACCAAGGGCCTCTTCAACAAGAAGCTCATCTCCCACATGAAGGATGGCGCCTGGCTCGTCAACACCGCTCGAGGAGCTATTTGTGTCACTGAGGACATTGTTGAGGCTCTCGAGTCCGGAAAGATTCGAGGCTACGGTGGTGATGTCTGGTTCCCTCAGCCCGCCCCAAAGGACCACCCCTGGAGAACAATGCGAAACAAGTACGGTGGAGGAAACGCCATGACCCCTCATATCTCTGGTACTTCTATTGATGCCCAAGGCCGATACGCTGAGGGCACCAAGAAAATCCTTGAGGTCTTCTTCTCAGGAAAGCAAGACTACCGACCCCAGGATATCATCTGTATCAACGGTCACTACGGTACCAAGGCTTACGGTGACGACAAGGAGCACAAGGAGCACAAGGAGCACGAGGTCAAATAAGCTATCAGCTCTATAGTACTGTACAGTAGGTACAATAGGATCTTGATATTACAGT
modifications: YALI0B19976g

In this data set the test system is Y. lipolytica JMY2900. As to the kind of experiment: qPCR of putative FDH gene transcription upon induction with sodium formate. In kind it is cell-based, Yarrowia lipolytica. The conditions noted are these: YNB with 0.5% sodium formate, 6 h, 28° C., vs absence of formate; qPCR normalised to actin. The protocol:
FIG. 3: Transcription levels of the FDH genes of Yarrowia lipolytica W29 measured by qPCR, normalised to actin (ACT1) expression. Yarrowia lipolytica was grown in YNB supplemented with 1% glucose and 0.5% yeast extract at 15 h at 28° C., before being washed and transferred into YNB with 0.5% of sodium formate for induction and grown for 6 h.
The inducibility of the putative FDH genes with formate was then tested by qPCR. YALI0E14256g1_1 and the nine putative FDH with the highest % identity to YALI0E14256g1_1 were selected for testing. Y. lipolytica JMY2900 was cultured in YNB media supplemented with 1% glucose and 0.5% yeast extract for 15 h at 28° C. Cells were washed with distilled water and cultured in fresh liquid YNB media supplemented with 0.5% sodium formate at 28° C. with agitation at 160 rpm, before being harvested at 6 h post-inoculated. Cells were frozen in liquid nitrogen and stored at −80° C. RNA was subsequently extracted using the RNeasy Mini Kit (Qiagen), and 2 μg was treated with DNAse (Ambion; Life Science Technologies, Saint-Aubain, France). cDNA was synthesised using the Maxima First Strand cDNA synthesis kit (Thermo Fischer Scientific, Villebon sur Yvette, France). qPCR was then performed using the SYBRgreen mastermix (Thermo Fischer Scientific) with gene-specific primers designed using Primer3 software. Relative expression levels were calculated using ΔCT and ΔΔCT methods. Expression levels were normalised to actin.
A general note: Real-time PCR tracks product formation cycle by cycle.
In the case of B1, the “Fold increase on induction (fold change expression of putative FDH genes upon induction with sodium formate)” value stood at 2.9 fold.

B2: the “Fold increase on induction (fold change expression of putative FDH genes upon induction with sodium formate)” value amounted to 5.7 fold.

Regarding B3, the “Fold increase on induction (fold change expression of putative FDH genes upon induction with sodium formate)” value is listed as 38.6 fold.

Regarding B4, the “Fold increase on induction (fold change expression of putative FDH genes upon induction with sodium formate)” value worked out at 11.4 fold.
